Assay results from the supplement of paper PMC7877785.
± gives the uncertainty stated by the source.

Test: self-splicing fitness, log relative to wild type (ln ratio); higher = more splicing; Tetrahymena group I intron in knt gene, E. coli kanamycin selection, DiMSum; sequences stand for … in CUCUCU…GGAGGGAAAAGUUAUCAGGCAUGCACCUGGUAGCUAGUCUUUAAACCAAUAGAUUGCAUCGGUUUAAAAGGCAAGACCGUCAAAUUGCGGGAAAGGGGUCAACAGCCGUUCAGUACCAAGUCUCAGGGGAAACUUUGAGAUGGCCUUGCAAAGGGUAUGGUAAUAAGCUGACGGACAUGGUCCUAACCACGCAGCCAAGUCCUAAGUCAACAGAUCUUCUGUUGAUAUGGAUGCAGUUCACAGACUAAAUGUCGGUCGGGGAAGAUGUAUUCUUCUCAUAAGAUAUAGUCGGACCUCUCCUUAAUGGGAGCUAGCGGAUGAAGUGAUGCAACACUGGAGCCGCUGGGAACUAAUUUGUAUGCGAAAGUAUAUUGAUUAGUUUUGGAGUACUCGUGGUCG
Procedure, shortened: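 Colonies from six replicate transformations of E. coli BL21(DE3) were pooled and amplicon-sequenced on an Illumina HiSeq 2500. The library placed an intron with all eight P1ex-region nucleotides randomised inside the knt kanamycin-resistance gene on pET-22b(+), and cells grew overnight at 37°C or 30°C on LB agar with or without 25 μg/mL kanamycin (plus 100 μg/mL carbenicillin, 50 μM IPTG, 0.2% rhamnose). Fitness is the DiMSum error-weighted combination of wild-type-normalised replicate fold changes, kanamycin versus none.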

## ACGUAGCAAUAUUACGUCAG
30 °C
  self-splicing fitness (ln): -3.39 ± 0.18
37 °C
  self-splicing fitness (ln): -2.34 ± 0.2

## ACGUAGCAAUAUUACGUGGG
30 °C
  self-splicing fitness (ln): -3.6 ± 0.16
37 °C
  self-splicing fitness (ln): -3.07 ± 0.18

## ACUAAGCAAUAUUACGACUU
30 °C
  self-splicing fitness (ln): -0.429 ± 0.093
37 °C
  self-splicing fitness (ln): 0.924 ± 0.12

## ACUAAGCAAUAUUACGAUUA
30 °C
  self-splicing fitness (ln): -0.928 ± 0.12
37 °C
  self-splicing fitness (ln): -0.502 ± 0.1

## ACUAAGCAAUAUUACGCCUA
30 °C
  self-splicing fitness (ln): -1.41 ± 0.13
37 °C
  self-splicing fitness (ln): -0.734 ± 0.13

## ACUAAGCAAUAUUACGCUCG
30 °C
  self-splicing fitness (ln): -0.345 ± 0.09
37 °C
  self-splicing fitness (ln): -0.528 ± 0.11

## ACUAAGCAAUAUUACGCUGA
30 °C
  self-splicing fitness (ln): -2.16 ± 0.17
37 °C
  self-splicing fitness (ln): -1.31 ± 0.15

## ACUAAGCAAUAUUACGGAAA
30 °C
  self-splicing fitness (ln): -2.78 ± 0.37
37 °C
  self-splicing fitness (ln): -1.7 ± 0.23

## ACUAAGCAAUAUUACGGAUC
30 °C
  self-splicing fitness (ln): -2.21 ± 0.13
37 °C
  self-splicing fitness (ln): -1.3 ± 0.14

## ACUAAGCAAUAUUACGGCGC
30 °C
  self-splicing fitness (ln): -0.144 ± 0.099
37 °C
  self-splicing fitness (ln): -0.477 ± 0.096

## ACUAAGCAAUAUUACGGGAU
30 °C
  self-splicing fitness (ln): -2.17 ± 0.073
37 °C
  self-splicing fitness (ln): -1.3 ± 0.097

## ACUAAGCAAUAUUACGGUAU
30 °C
  self-splicing fitness (ln): -3.24 ± 0.17
37 °C
  self-splicing fitness (ln): -1.73 ± 0.13

## ACUAAGCAAUAUUACGUAAC
30 °C
  self-splicing fitness (ln): -4.39 ± 0.26
37 °C
  self-splicing fitness (ln): -2.48 ± 0.24

## ACUAAGCAAUAUUACGUUCG
30 °C
  self-splicing fitness (ln): -1.06 ± 0.074
37 °C
  self-splicing fitness (ln): -0.408 ± 0.092

## ACUAAGCAAUAUUACGUUUU
30 °C
  self-splicing fitness (ln): -2.55 ± 0.093
37 °C
  self-splicing fitness (ln): -1.54 ± 0.1

## ACUCAGCAAUAUUACGAAUA
30 °C
  self-splicing fitness (ln): -1.99 ± 0.14
37 °C
  self-splicing fitness (ln): -0.941 ± 0.15

## ACUCAGCAAUAUUACGACCA
30 °C
  self-splicing fitness (ln): -1.19 ± 0.084
37 °C
  self-splicing fitness (ln): -0.64 ± 0.12

## ACUCAGCAAUAUUACGACCC
30 °C
  self-splicing fitness (ln): -0.845 ± 0.19
37 °C
  self-splicing fitness (ln): -2.22 ± 0.22

## ACUCAGCAAUAUUACGACUC
30 °C
  self-splicing fitness (ln): -0.493 ± 0.054
37 °C
  self-splicing fitness (ln): -0.0647 ± 0.068

## ACUCAGCAAUAUUACGCAUC
30 °C
  self-splicing fitness (ln): -2.72 ± 0.15
37 °C
  self-splicing fitness (ln): -1.48 ± 0.11

## ACUCAGCAAUAUUACGCCAA
30 °C
  self-splicing fitness (ln): -1.12 ± 0.17
37 °C
  self-splicing fitness (ln): -2.5 ± 0.21

## ACUCAGCAAUAUUACGCGAC
30 °C
  self-splicing fitness (ln): -2.16 ± 0.14
37 °C
  self-splicing fitness (ln): -1.85 ± 0.15

## ACUCAGCAAUAUUACGCGCU
30 °C
  self-splicing fitness (ln): -1.41 ± 0.14
37 °C
  self-splicing fitness (ln): -0.1 ± 0.16

## ACUCAGCAAUAUUACGCGGC
30 °C
  self-splicing fitness (ln): -3.2 ± 0.25

## ACUCAGCAAUAUUACGCUCU
30 °C
  self-splicing fitness (ln): -0.15 ± 0.067
37 °C
  self-splicing fitness (ln): 0.559 ± 0.094

## ACUCAGCAAUAUUACGCUUA
30 °C
  self-splicing fitness (ln): -1.14 ± 0.14
37 °C
  self-splicing fitness (ln): -0.0124 ± 0.12

## ACUCAGCAAUAUUACGGCAA
30 °C
  self-splicing fitness (ln): -1.24 ± 0.094
37 °C
  self-splicing fitness (ln): -0.795 ± 0.099

## ACUCAGCAAUAUUACGGCCC
30 °C
  self-splicing fitness (ln): -1.32 ± 0.15
37 °C
  self-splicing fitness (ln): -0.343 ± 0.19

## ACUCAGCAAUAUUACGGCCU
30 °C
  self-splicing fitness (ln): -0.0739 ± 0.079
37 °C
  self-splicing fitness (ln): -0.0329 ± 0.099

## ACUCAGCAAUAUUACGGCUA
30 °C
  self-splicing fitness (ln): -0.553 ± 0.089
37 °C
  self-splicing fitness (ln): 0.149 ± 0.093

## ACUCAGCAAUAUUACGGGCU
30 °C
  self-splicing fitness (ln): -0.98 ± 0.067
37 °C
  self-splicing fitness (ln): -0.954 ± 0.095

## ACUCAGCAAUAUUACGGGUU
30 °C
  self-splicing fitness (ln): -3.64 ± 0.17
37 °C
  self-splicing fitness (ln): -2.37 ± 0.19

## ACUCAGCAAUAUUACGGUGU
30 °C
  self-splicing fitness (ln): -2.56 ± 0.085
37 °C
  self-splicing fitness (ln): -1.34 ± 0.079

## ACUCAGCAAUAUUACGGUUG
30 °C
  self-splicing fitness (ln): -4.32 ± 0.17
37 °C
  self-splicing fitness (ln): -2.77 ± 0.18

## ACUCAGCAAUAUUACGUAUA
30 °C
  self-splicing fitness (ln): -2.19 ± 0.11
37 °C
  self-splicing fitness (ln): -1.11 ± 0.1

## ACUCAGCAAUAUUACGUCAC
30 °C
  self-splicing fitness (ln): -3.57 ± 0.15
37 °C
  self-splicing fitness (ln): -1.97 ± 0.15

## ACUCAGCAAUAUUACGUCAG
30 °C
  self-splicing fitness (ln): -2.31 ± 0.1
37 °C
  self-splicing fitness (ln): -2.68 ± 0.17

## ACUCAGCAAUAUUACGUGGC
30 °C
  self-splicing fitness (ln): -3.04 ± 0.14
37 °C
  self-splicing fitness (ln): -2.9 ± 0.17

## ACUCAGCAAUAUUACGUGGG
30 °C
  self-splicing fitness (ln): -3.7 ± 0.18
37 °C
  self-splicing fitness (ln): -2.9 ± 0.2

## ACUCAGCAAUAUUACGUGUC
30 °C
  self-splicing fitness (ln): -3.74 ± 0.16
37 °C
  self-splicing fitness (ln): -2.21 ± 0.17

## ACUCAGCAAUAUUACGUGUU
30 °C
  self-splicing fitness (ln): -3.14 ± 0.1
37 °C
  self-splicing fitness (ln): -1.28 ± 0.088

## ACUGAGCAAUAUUACGACAA
30 °C
  self-splicing fitness (ln): -2.96 ± 0.2
37 °C
  self-splicing fitness (ln): -2.4 ± 0.23
